Positions count from the first letter of the chain named.
B1: fusion loop targeting pan-flavivirus antibody (4G2) (antibody, V domains shown)
VH: EVQLQQSGPELVKPGTSVKISCKTSGYTFTEYTIHWVKQSHGKSLAWIGGIDPNSGGTNYSPNFKGKATLTVDKSSSTAYMDLRSLSSEDSAVYFCARIYHYDGYFDVWGAGTAVTVSS
VL: DIKMTQSPSSMYASLGERVTITCKASQDINSYLTWFQQKPGKSPKTLIYRANRLIDGVPSRFSGSGSGQDYSLTISSLDYEDMGIYYCLQYDEFPPTFGGGTKLEIKR
B2: mAb 7 (antibody, V domains shown)
VH: EVQLLESGGGLVQPGGSLRLSCAASGFSFSTYSMHWVRQAPGKGLEWVSAISGEGDSAYYADSVKGRFEISRDNSKNTLYLQMNKVRAEDTAVYYCVGGYSNFYYYYTMDAWGQGTMVTVSS
VL: DIVMTQSPASLSLSPGERATLSCRATQSIVTFLAWYQQKPGQAPRLLIYDASTNASGIPARFSGSRSGTDFTLTITRLEPEDFAVYYCQQRYNWPPYSFGQGTKLEIK
notes: also called VH.2 / VL.4
B3: mAb 6 (antibody, V domains shown)
VH: EVQLVESGGGLVQPGGSLRLSCSASGFSFSTYSMHWVRQAPGKGLEYVSAITGEGDSAFYADSVKGRFTISRDNSKNTLYFEMNSLRPEDTAVYYCVGGYSNFYYYYTMDAWGQGTSVTVSS
VL: B2 VL with D1E, M4L, V30S, Q38H, N54R, I58V, T76S, R77S, L105V
notes: also called VH.3 / VL.1
B4: mAb 8 (antibody, V domains shown)
VH: B2 VH with E69T
VL: B2 VL with V30S, N54R
notes: also called VH.1 / VL.2

Assays:
[1] = molecular target: T1, Zika virus envelope protein (EP), strain ILM (Brazil Paraiba 2015), on whole virus (Zika virus)
T1 construct: also called Zika strain ILM

[2] = molecular target: T1, Zika virus envelope protein (EP), …; assay: cell-based or functional assay

Binder	Kd [1] [µg/mL]	PRNT50 (plaque reduction neutralization test on BHK-21 cells) [2] [µg/mL]
B1	6.41	–
B2	5.21	–
B3	3.85	0.0597
B4	19.3	5.12
